Source: patent US11098306B1, “Promoters and uses thereof” (priority 2018, dated 2021)

B1: Pvtac: engineered hybrid phenolic-inducible promoter, PemrR with spacer region of Ptac, SEQ ID NO:53 (nucleic acid)
DNA: GAATCATTTTTCTAAAACAATACATTTGACAATTAATCATCGGCTCGTATAATGATCGGCTGAAATTAATGAGGTCATACCCAAAT
modifications: expressed or natural sequence
B2: Pvtrc: engineered hybrid phenolic-inducible promoter, PemrR with spacer region of Ptrc, SEQ ID NO:54 (nucleic acid)
DNA: GAATCATTTTTCTAAAACAATACATTTGACAATTAATCATCCGGCTCGTATAATGATCGGCTGAAATTAATGAGGTCATACCCAAAT
modifications: expressed or natural sequence
B3: Pvtic: engineered hybrid phenolic-inducible promoter, PemrR with spacer region of Ptic, SEQ ID NO:55 (nucleic acid)
DNA: GAATCATTTTTCTAAAACAATACATTTGACAATTAATCATCGCGGCTCGTATAATGATCGGCTGAAATTAATGAGGTCATACCCAAAT
modifications: expressed or natural sequence

Tested on: mCherry expression in E. coli
Assay: Bulk mCherry fluorescence of E. coli strains (plate reader, normalized to OD600) after induction with phenolics
Type: cell-based
Conditions: for improved gene expression in comparison with PemrR: 1 mM coumaric acid; for improved gene expression in comparison with PemrR / fold change in comparison with PemrR / improvement of expression levels in comparison with PemrR: 24 h of induction; for fold change in comparison with PemrR: 5 mM coumaric acid; for improvement of expression levels in comparison with PemrR: 5 mM vanillic acid; for increase in fluorescence / protein expression in comparison with native promoter PemrR (control strain RIF01): induced with 5 mM vanillin, 12 h after induction, 30° C.
Experimental: Cell growth and bulk fluorescence measurements: For the fluorescence experiments, frozen stocks of the strains were used to inoculate 5 ml of LB medium containing 25 mg l^−1 chloramphenicol and incubated at 37° C. with an orbital shaking of 250 r.p.m. Overnight cultures were used to inoculate (0.1% volume/volume) an M9 salt medium containing 25 mg l^−1 chloramphenicol, 20 g l^−1 glucose, and 5 g l^−1 yeast extract. The M9 salt medium (Sigma-Aldrich) contains 6.78 g l^−1 Na2HPO4, 3 g l^−1 KH2PO4, 0.5 g l^−1 NaCl, 1 g l^−1 NH4Cl, 0.1 mM CaCl2), and 2 mM MgSO4. 200 μl cultures of each strain (in triplicates) were loaded into black 96-well plates (black polystyrene plates with flat pclear bottom from Greiner Bio-One) and covered with Breathe-Easier sealing membrane (Sigma).
The cultures were grown until mid-log phase at 37° C. and 250 rpm. The mid-log phase cells were induced with phenolics such as vanillin, coumaric acid, and vanillic acid at varying concentrations. The induced cells were incubated in a plate reader (Tecan Infinite 200 Pro) at 30° C. and a 3 mm shaking amplitude. The optical density of the cultures and the mCherry fluorescence was monitored at required intervals in the plate reader. Cell density was measured by monitoring the absorption of the cultures at 600 nm (OD600). Fluorescence was recorded using an excitation wavelength of 575±9 nm and an emission wavelength of 610±20 nm with a manual gain of 100 and a Z-position of 20,000 μm. Fluorescence readings are reported as normalized fluorescence given by the ratio of fluorescence of the cells to the OD600. The fold changes were reported as the ratio of fluorescence level of the strain with engineered promoter to the strain with the basal promoter.

Molecule | induction of the promoters (PemrR, Pvtac, Pvtrc, Pvtic) by the phenolic (strains RIF01-RIF04, effect emerged after 24 h) | improved gene expression in comparison with PemrR [fold] | fold change in comparison with PemrR [fold] | improvement of expression levels in comparison with PemrR [fold] | increase in fluorescence / protein expression in comparison with native promoter PemrR (control strain RIF01) [fold]
COc1cc(C(=O)O)ccc1O [Vanillic acid, vanillic acid, reference compound] | some level of induction |  |  |  | 
B1 |  | 10.4 | 7.1 | 9.5 | 4.6
B2 |  | 8.5 | 6.4 | 6.8 | 3.0
B3 |  |  |  | 2.1 | 1.5
